Four molecules from article PMC6521699 can be followed below.

The target of test [1] is human IL-2 receptor βƔc heterodimer (human) (UniProt P14784). The experiment in a line: SPR.
For test [2], the target named is mouse IL-2Rβ ectodomain, biotinylated (mouse). Description: SPR. (SPR reads the build-up and loss of mass on a sensor chip optically.)
Test [3] deals with mouse IL-2 receptor βƔc heterodimer (mouse). Description: SPR.
The target in test [4] is human IL-2Rβ, biotinylated (human) (UniProt P14784). Description: SPR.
In test [5] the target is IL-2Rβγc (species not stated, Figure E3d) (not stated (human and mouse receptors made)) (UniProt P14784). Description: BLI. (In general: In BLI a coated tip is dipped into the sample, and binding shifts an interference pattern.)
The target in test [6] is human IL-2 receptor βƔc heterodimer (human) (UniProt P14784).
Test [7] has as its target mouse IL-2 receptor βƔc heterodimer (mouse).

In the case of “Super-2 / Superkine (from UniProt P60568 21-153) (ligand)”, the Kd in test [1] was 301 nM; in test [2], 214 nM; in test [3], 312 nM.
For Neoleukin-2/15 (designed binder), the Kd in test [1] came out at 18.8 nM; in test [4], 11.2 nM; in test [2], 16.1 nM; in test [3], 38.4 nM; in test [5] it was 6.9 nM. The same molecule came in with an EC50 of STAT5 phosphorylation in IL-2Rα- (CD25-) human YT-1 NK cells in test [6] of 0.05 nM. Further, in test [7], the EC50 of STAT5 phosphorylation in IL-2Rα- mouse primary T cells was 0.13 nM.
For the molecule “human interleukin-2 (from UniProt P60568 21-153) (ligand)”, the Kd in test [2] was 8110 nM; in test [3], 492 nM.

B1: mouse interleukin-2 (ligand)
chain: APTSSSTSSSTAEAQQQQQQQQQQQQHLEQLLMDLQELLSRMENYRNLKLPRMLTFKFYLPKQATELKDLQCLEDELGPLRHVLDLTQSKSFQLEDAENFISNIRVTVVKLKGSDNTFECQFDDESATVVDFLRRWIAFCQSIISTSPQ
Turning to B1, the Kd in test [2] was 1500 nM.

By Kd is commonly meant the free concentration of one partner at which half of the binding sites on the other are occupied at equilibrium, for simple one-to-one binding. Low values mean higher affinity, high ones lower affinity.
